Source: paper PMC4390494 (Journal of immunology (Baltimore, Md. : 1950), 2015)

Target: the molecule itself
Assay: pull-down

B1: HkRP3 (1) (aa 1-724), GST- or MBP-fused (domain or fragment, UniProt A6NC98-1 1-724, looked up)
chain: MEGGKGPRLRDFLSGSLATWALGLAGLVGEAEDSEGEEEEEEEEPPLWLEKRFLRLSDGALLLRVLGIIAPSSRGGPRMLRGLDGPAAWRVWNLNHLWGRLRDFYQEELQLLILSPPPDLQTLGFDPLSEEAVEQLEGVLRLLLGASVQCEHRELFIRHIQGLSLEVQSELAAAIQEVTQPGAGVVLALSGPDPGELAPAELEMLSRSLMGTLSKLARERDLGAQRLAELLLEREPLCLRPEAPSRAPAEGPSHHLALQLANAKAQLRRLRQELEEKAELLLDSQAEVQGLEAEIRRLRQEAQALSGQAKRAELYREEAEALRERAGRLPRLQEELRRCRERLQAAEAYKSQLEEERVLSGVLEASKALLEEQLEAARERCARLHETQRENLLLRTRLGEAHAELDSLRHQVDQLAEENVELELELQRSLEPPPGSPGEAPLAGAAPSLQDEVREAEAGRLRTLERENRELRGLLQVLQGQPGGQHPLLEAPREDPVLPVLEEAPQTPVAFDHSPQGLVQKARDGGPQALDLAPPALDSVLEASAECPQAPDSDPQEAESPLQAAAMDPQASDWSPQESGSPVETQESPEKAGRRSSLQSPASVAPPQGPGTKIQAPQLLGGETEGREAPQGELVPEAWGLRQEGPEHKPGPSEPSSVQLEEQEGPNQGLDLATGQAEAREHDQRLEGTVRDPAWQKPQQKSEGALEVQVWEGPIPGESLASGV
binding result: binds
